Test results reported in patent US20260351346 (published 2026).

B1: 4C2-WTH (antibody, V domains shown)
VH: QSVEESGGRLVTPGTPLTLTCTVSGFSLGTFPIGWVRQAPGSGLEWIGIFNTDGSAAYASWARGRFTVFKNSTTVDLKMTSPTTEDTATYFCARINADYSGWYFGIWGPGTLVTVSS
VL: EMTQTPASVEVAVGGTVTIKCQASQSIYSYLAWYQQKPGQPPKPLIYEASKTPSGVPSRFKGSGSGTEYTLTISGVQCEDAATYYCQKGYSVSNVAFGGGTEVVVK
B2: 4C2-Candi4 (antibody, V domains shown)
VH: EVQLEESGGGVVQPGGSLKLSCTVSGFSLGTFPIGWVRQAPGKGLEWVGIFNTDGSAAYAASVKGRFTVSKNSTKNTVYLHMNSLKTEDTAVYFCARINADYSGWYFGIWGQGTLVTVSS
VL: DIQMTQSPSSLSVSVGGRVTITCQASQSIYSYLAWYQQKPGKAPKLLIYEASKTPSGVPSRFNGNGSGTEYTLTISSLQPEDSATYYCQKGYSVSNVAFGGGTEVEIK
B3: 4C2-Candi2 (antibody, V domains shown)
VH: EVQLEESGGGLVQPGMSLRLSCTVSGFSLGTFPIGWVRQAPGKGLEWVGIFNTDGSAAYAASVKGRFNVSKNSTKNTVYLHMNSLKTEDTAVYFCARINADYSGWYFGIWGQGTLVTVSS
VL: AQQMTQSPSSLSVSVGGRVTITCQASQSIYSYLAWYQQKPGKAPKLLIYEASKTPSGVPSRFNGNGSGTEYTLTISSLQPEDSATYYCQKGYSVSNVAFGGGTEVEIK
B4: 4C2-Candi3 (antibody, V domains shown)
VH: EVQLEESGGGLVQPGGSLALSCTVSGFSLGTFPIGWVRQAPGKGLEWVGIFNTDGSAAYAASVKGRFTVSRDSSKNTVYLHMNSLKTEDTAVYFCARINADYSGWYFGIWGQGTLVTVSS
VL: DIQMTQSPSSLSASVGGRVTITCQASQSIYSYLAWYQQKPGKAPKLLIYEASKTPSGVPSRFNGNGSGTDFTLTISSLQPEDSATYYCQKGYSVSNVAFGGGTEVEIK

target: TNFRSF9 (CD137) (human); assay: ELISA
Sequence (chain, as listed by the source): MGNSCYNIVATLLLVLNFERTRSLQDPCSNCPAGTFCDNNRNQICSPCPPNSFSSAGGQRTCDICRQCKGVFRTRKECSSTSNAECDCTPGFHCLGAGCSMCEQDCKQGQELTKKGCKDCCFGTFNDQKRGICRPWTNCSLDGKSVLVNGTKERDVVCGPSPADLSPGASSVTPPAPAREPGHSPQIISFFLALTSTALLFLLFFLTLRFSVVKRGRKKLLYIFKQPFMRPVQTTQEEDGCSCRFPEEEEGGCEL

**Q.** B1 was tested. Which EC50 did it give?
**A.** Its EC50 is 3.8 ng/mL.

**Q.** For B2, which EC50 is on record?
**A.** The EC50 was 2.46 ng/mL.

**Q.** With B3 as the binder, how does the EC50 read?
**A.** The EC50 was 2.38 ng/mL.

**Q.** B4 was tested. Which EC50 did it give?
**A.** The EC50 was 100 ng/mL.
